Measurements published in patent EP1803810A1.

Columns and labels:
[1] = molecular target: human integrin αvβ3 (human) (UniProt P06756); test: flow cytometry on HMVEC-d; competitor mAb LM609
[2] = molecular target: human integrin α5β1 (human) (UniProt P08648); test: flow cytometry on HMVEC-d; competitor mAb SAM-1
[3] = molecular target: human integrin αvβ5 (human) (UniProt P06756); test: flow cytometry on HMVEC-d; competitor mAb MAB 1961
[4] = molecular target: α6β1.α6β4 (human) (UniProt P23229); test: flow cytometry on HMVEC-d; competitor α6 integrin mAb (GoH3 and/or 439-9B)
[5] = molecular target: human integrin α2β1 (human) (UniProt P17301); test: flow cytometry on HMVEC-d; competitor mAb BHA2.1
Sequence of UniProt P17301 (P17301 30-1181, chain 1 of 2): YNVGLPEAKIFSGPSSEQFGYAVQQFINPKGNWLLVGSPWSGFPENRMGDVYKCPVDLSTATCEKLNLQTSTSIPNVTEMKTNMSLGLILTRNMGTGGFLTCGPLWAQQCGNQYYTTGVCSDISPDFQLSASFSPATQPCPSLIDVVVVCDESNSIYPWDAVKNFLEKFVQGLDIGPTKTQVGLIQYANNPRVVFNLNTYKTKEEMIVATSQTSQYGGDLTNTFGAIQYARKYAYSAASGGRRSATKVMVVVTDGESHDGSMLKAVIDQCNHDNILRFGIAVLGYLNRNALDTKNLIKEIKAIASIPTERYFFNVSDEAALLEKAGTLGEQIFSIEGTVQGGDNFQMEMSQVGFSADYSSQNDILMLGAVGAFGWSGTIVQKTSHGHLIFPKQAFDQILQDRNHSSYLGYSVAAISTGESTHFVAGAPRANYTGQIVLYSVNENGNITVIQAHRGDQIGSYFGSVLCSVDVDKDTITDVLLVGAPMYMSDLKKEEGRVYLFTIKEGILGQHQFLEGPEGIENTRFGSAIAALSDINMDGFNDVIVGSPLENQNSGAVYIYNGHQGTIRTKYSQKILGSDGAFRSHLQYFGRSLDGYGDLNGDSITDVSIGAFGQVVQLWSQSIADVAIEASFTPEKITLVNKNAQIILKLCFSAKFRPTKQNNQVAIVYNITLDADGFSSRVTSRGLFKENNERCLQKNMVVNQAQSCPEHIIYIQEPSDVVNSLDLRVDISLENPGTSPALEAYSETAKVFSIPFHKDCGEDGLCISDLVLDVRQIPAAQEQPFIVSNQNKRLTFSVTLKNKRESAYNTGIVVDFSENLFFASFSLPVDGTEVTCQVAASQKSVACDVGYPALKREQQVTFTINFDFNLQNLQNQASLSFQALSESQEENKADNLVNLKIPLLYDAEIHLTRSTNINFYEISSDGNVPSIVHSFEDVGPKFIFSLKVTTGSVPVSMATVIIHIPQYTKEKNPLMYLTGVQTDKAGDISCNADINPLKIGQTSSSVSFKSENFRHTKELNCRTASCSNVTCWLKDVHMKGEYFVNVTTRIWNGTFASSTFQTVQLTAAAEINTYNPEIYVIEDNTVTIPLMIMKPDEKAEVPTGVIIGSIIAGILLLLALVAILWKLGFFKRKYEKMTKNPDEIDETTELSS
Sequence of UniProt P17301 (P05556 21-798, chain 2 of 2, further chain): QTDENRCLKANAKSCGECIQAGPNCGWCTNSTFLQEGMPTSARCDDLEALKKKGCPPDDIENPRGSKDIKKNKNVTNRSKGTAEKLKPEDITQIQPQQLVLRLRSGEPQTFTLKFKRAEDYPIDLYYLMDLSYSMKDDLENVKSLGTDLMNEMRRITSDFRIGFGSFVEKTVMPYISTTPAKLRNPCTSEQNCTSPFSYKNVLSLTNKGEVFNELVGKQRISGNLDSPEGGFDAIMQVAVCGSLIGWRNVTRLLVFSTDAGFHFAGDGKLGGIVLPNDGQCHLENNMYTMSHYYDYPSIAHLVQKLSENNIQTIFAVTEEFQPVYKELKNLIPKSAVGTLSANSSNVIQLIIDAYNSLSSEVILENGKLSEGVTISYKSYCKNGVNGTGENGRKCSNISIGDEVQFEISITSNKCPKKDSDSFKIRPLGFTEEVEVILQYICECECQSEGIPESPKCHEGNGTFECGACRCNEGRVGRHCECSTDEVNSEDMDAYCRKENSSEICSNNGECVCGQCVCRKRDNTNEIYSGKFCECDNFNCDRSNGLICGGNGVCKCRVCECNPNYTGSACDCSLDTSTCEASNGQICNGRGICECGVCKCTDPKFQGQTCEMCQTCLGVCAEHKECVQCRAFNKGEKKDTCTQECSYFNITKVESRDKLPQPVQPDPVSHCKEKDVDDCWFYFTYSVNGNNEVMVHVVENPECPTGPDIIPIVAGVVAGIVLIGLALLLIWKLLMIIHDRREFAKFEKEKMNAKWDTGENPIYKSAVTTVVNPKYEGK

Sequence of UniProt P08648 (P08648 42-1049, chain 1 of 2): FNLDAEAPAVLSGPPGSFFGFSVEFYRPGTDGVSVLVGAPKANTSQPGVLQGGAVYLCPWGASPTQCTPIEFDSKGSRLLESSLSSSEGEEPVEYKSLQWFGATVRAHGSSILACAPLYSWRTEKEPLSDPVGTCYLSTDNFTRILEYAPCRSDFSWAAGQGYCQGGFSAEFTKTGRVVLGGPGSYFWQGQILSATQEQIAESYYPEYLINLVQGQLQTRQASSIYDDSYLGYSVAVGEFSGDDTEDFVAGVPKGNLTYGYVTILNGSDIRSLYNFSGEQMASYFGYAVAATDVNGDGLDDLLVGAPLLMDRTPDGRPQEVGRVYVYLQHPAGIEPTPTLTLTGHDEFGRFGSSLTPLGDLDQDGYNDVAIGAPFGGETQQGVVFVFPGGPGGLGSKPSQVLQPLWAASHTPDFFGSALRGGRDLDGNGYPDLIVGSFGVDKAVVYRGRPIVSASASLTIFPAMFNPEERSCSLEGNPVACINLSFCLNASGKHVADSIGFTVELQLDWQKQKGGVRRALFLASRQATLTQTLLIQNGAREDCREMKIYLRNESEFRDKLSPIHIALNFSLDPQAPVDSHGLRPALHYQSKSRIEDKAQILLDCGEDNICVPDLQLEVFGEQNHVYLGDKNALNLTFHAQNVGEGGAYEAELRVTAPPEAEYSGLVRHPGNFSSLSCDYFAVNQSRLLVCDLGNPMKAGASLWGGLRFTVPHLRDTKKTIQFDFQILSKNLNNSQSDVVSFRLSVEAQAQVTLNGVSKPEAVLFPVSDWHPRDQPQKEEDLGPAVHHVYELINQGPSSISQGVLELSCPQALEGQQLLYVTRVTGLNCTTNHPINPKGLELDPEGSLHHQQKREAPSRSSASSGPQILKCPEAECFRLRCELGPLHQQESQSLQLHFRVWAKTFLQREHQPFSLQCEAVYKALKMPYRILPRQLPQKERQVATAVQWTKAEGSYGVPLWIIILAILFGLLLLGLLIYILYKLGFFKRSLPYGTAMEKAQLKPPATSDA
Sequence of UniProt P08648 (P05556 21-798, chain 2 of 2, further chain): as the sequence (P05556 21-798, chain 2 of 2, further chain) above
Sequence of UniProt P23229 (P23229 24-1130): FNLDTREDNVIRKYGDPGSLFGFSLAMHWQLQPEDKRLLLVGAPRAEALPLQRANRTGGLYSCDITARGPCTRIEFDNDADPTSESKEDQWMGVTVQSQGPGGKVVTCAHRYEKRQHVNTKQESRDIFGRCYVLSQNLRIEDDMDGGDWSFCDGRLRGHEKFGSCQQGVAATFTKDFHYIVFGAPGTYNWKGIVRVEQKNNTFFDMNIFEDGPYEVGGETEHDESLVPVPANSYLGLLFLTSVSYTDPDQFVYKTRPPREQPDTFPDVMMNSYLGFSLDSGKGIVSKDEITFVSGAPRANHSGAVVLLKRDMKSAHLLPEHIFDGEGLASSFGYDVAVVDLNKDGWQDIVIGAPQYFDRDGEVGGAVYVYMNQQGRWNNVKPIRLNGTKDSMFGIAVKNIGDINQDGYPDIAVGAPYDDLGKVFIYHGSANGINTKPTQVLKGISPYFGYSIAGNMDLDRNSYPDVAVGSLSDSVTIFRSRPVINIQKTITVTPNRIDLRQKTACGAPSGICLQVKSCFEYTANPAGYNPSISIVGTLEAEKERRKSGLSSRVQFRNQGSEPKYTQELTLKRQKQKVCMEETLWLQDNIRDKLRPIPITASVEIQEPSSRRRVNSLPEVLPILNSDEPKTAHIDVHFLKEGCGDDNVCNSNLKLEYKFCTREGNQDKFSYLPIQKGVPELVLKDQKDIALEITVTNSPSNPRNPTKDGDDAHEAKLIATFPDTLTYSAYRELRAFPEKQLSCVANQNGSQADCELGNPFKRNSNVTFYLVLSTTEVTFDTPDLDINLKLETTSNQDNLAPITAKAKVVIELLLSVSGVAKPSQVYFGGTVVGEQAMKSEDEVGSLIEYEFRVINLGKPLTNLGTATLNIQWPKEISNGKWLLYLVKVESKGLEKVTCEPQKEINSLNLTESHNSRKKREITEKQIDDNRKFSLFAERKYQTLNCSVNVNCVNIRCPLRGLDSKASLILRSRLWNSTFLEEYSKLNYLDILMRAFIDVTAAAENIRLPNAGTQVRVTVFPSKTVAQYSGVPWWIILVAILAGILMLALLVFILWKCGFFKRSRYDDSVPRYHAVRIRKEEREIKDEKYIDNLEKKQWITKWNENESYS

Row | percent inhibition of binding by integrin mAb [1] | percent inhibition of binding by integrin mAb [2] | percent inhibition of binding by integrin mAb [3] | percent inhibition of binding by integrin mAb [4] | percent inhibition of binding by integrin mAb [5] | Substance
1 | 58% | – | – | – | – | ADAM-20dis-Fc (Fc fusion)
2 | – | 49% | – | 31% | 22% | ADAM-23dis-Fc (Fc fusion)

The next lines start with the substance.

Row | Substance | percent inhibition of binding by integrin mAb [1] | percent inhibition of binding by integrin mAb [2] | percent inhibition of binding by integrin mAb [3] | percent inhibition of binding by integrin mAb [4] | percent inhibition of binding by integrin mAb [5]
3 | ADAM-21dis-Fc (Fc fusion) | – | 54% | – | – | –
4 | ADAM-15dis-Fc (Fc fusion) | 60% | 30% | 25% | – | –
5 | ADAM-22dis-Fc (Fc fusion) | 42% | 36% | – | 32% | –
